Laboratory results: article PMC2583301

How the values were obtained:
[1] = biological target: H2A refolded in the absence of H2B (Xenopus laevis) (UniProt P06897); assay: AUC
[2] = biological target: yNap1 C200A/C249A/C272A labelled with Alexa dye at Cys-414 (yNap1m*) (yeast) (UniProt P25293); assay: other fluorescence titration
[3] = biological target: H2A/H2B(T112C) dimer, H2B labelled with Alexa dye (Xenopus laevis) (UniProt P06897); assay: other fluorescence titration

Chain of yNap1 C200A/C249A/C272A labelled with Alexa dye at Cys-414 (yNap1m*) (yeast) (P25293 whole entry C200A/C249A/C272A): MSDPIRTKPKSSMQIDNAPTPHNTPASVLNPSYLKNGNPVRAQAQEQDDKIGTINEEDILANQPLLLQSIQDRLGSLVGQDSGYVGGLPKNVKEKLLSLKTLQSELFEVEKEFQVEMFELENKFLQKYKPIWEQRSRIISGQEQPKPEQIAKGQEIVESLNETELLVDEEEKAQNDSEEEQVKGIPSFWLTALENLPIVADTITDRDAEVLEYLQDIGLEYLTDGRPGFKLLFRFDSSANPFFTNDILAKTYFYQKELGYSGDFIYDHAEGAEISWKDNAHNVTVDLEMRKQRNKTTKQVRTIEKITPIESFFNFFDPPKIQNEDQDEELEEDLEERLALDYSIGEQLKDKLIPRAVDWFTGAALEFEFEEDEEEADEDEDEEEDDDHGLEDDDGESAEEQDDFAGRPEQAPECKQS
Chain of yeast nucleosome assembly protein 1 (yNap1), wild type (P25293 whole entry): as the sequence (P25293 whole entry C200A/C249A/C272A) above, with A200C, A249C, A272C counted along it

Q: With “H2A refolded in the absence of H2B (from UniProt P06897 1-130) (natural protein)” as the substance, how does the stoichiometry N [1] read?
A: 2

Q: For “H2A/H2B dimer (major type, wild type) (from UniProt P06897;P02281) (complex)”, which stoichiometry N (H2A/H2B dimer per yNap1 monomer) [2] is on record?
A: 1

Q: How did the Kd [2] turn out when “Tailless H2A/H2B dimer (from UniProt P06897 15-119) (complex)” was run?
A: 2.1 nM

Q: How did the Kd [3] turn out when “yeast nucleosome assembly protein 1 (yNap1), wild type (from UniProt P25293 1-417) (natural protein)” was run?
A: 1.3 nM

Q: And the Kd app (yNap1 counted as dimer) [3]?
A: 0.7 nM
